Test results as given in patent US11813311B2, “Treatment and prevention of metabolic diseases” (Singapore Health Services PTE LTD., priority 2019, dated 2023).

Experiments:
[1] = tested on: rheumatoid synovial cells; settings: cited from earlier work
[2] = tested on: IL-11 mediated signalling; settings: cited from earlier work
[3] = tested on: primary human hepatocytes; experiment: Palmitate loading (lipotoxicity) of primary human hepatocytes; format: cell-based
Description: Palmitate:BSA conjugated solution in the ratio of 6:1 was prepared as described earlier (Alsabeeh et al., 2018). Palmitate (0.5 mM) conjugated in fatty acids free BSA was used to treated cells as described in figure legends; 0.5% BSA solution was used as control. […]
Primary human hepatocytes were seeded on 8-well chamber slides (1×10^4 cells/well). For this experiment, cells were not serum-starved prior to palmitate treatment. 24 hours following palmitate stimulation, cells were washed, incubated with 25 μM of DCFDA solution (ab113851, Abcam) for 45 minutes at 37° C. in the dark, and rinsed with dilution buffer according to the manufacturer's protocol. Live cells with positive DCF staining were imaged with filter set appropriate for fluorescein (FITC) using a fluorescence microscope (Leica). […]
(§1) Western blots were carried out on total protein extracts from hepatocytes and liver tissues. Hepatocyte and liver tissue lysates were homogenized in RIPA Lysis and Extraction Buffer (89901, Thermo Scientific) containing protease and phosphatase inhibitors (Roche). Protein lysates were separated by SDS-PAGE and transferred to PVDF membranes. Protein bands were visualized using the ECL detection system (Pierce) with the appropriate secondary antibodies: anti-rabbit HRP or anti-mouse HRP.

[4] = tested on: primary human hepatocytes; experiment: Stimulation of primary human hepatocytes with IL11, hyperIL11, hyperIL6; format: cell-based
Description: Human hepatocytes (5200, ScienCell) were grown and maintained in hepatocyte media (5201, ScienCell) supplemented with 2% fetal bovine serum (FBS) and 1% Penicillin-streptomycin.
Primary human hepatocytes (5200, ScienCell) were maintained in hepatocyte medium ([…], ScienCell) supplemented with 2% fetal bovine serum, 1% Penicillin-streptomycin at 37° C. and 5% CO2. Hepatocytes (P2-P3) were serum-starved overnight unless otherwise specified in the methods prior to 24 hours stimulation with different doses of various recombinant proteins as described.
For surface IL11RA, IL6R, and gp130 analysis, primary human hepatocytes and THP-1 cells were stained with IL11RA, IL6R, or gp130 antibody and the corresponding Alexa Fluor 488 secondary antibody. Cell death analysis was performed by staining primary human hepatocytes with Dead Cell Apoptosis Kit with Annexin V FITC and PI (V13242, Thermo Fisher). PI+ve cells were then quantified with the flow cytometer (Fortessa, BD Biosciences) and analyzed with FlowJo version X software (TreeStar).
Alanine Aminotransferase (ALT) activity in the cell culture supernatant and mouse serum was measured using ALT Activity Assay Kit (ab105134, Abcam). Liver Glutathione (GSH) levels were measured using Glutathione Colorimetric Detection Kit (EIAGSHC, Thermo Fisher). Total hydroxyproline content in mouse livers was measured using Quickzyme Total Collagen assay kit (QZBtotco15, Quickzyme Biosciences). The levels of serum and liver triglycerides were measured using Triglyceride Assay Kit (ab65336, Abcam). Mouse serum levels of Aspartate Aminotransferase (AST) and cholesterol were measured using AST Assay Kit (ab105135, Abcam) and Cholesterol Assay Kit (ab65390; Abcam), respectively. All colorimetric assays were performed according to the manufacturer's protocol.
as §1

[5] = tested on: HFMCD-fed mice; experiment: Hepatocyte-specific sgp130 expression in HFMCD-fed mice; format: in vivo, mouse
Description: (§2) Three weeks prior to starting either the WDF and HFMCD diet, mice were injected with an AAV8 virus encoding either albumin promoter-driven sgp130 (AAV8-Alb-sgp130), which contains the whole extracellular domain of mouse gp130 protein (amino acid 1 to 617), or albumin promoter alone (AAV8-Alb-Null) (FIGS. 35A, 41A, and 42A). AAV8-Alb-sgp130 administration induced high levels of sgp130 in the liver, which was also detectable in the peripheral circulation, suitable for both local and systemic inhibition of putative IL6 or IL11 trans-signaling (FIGS. 35B, 41B, 42B-42C).
6-8 weeks old C57BL/6N, Il11ra1−/− mice, and Il11ra1loxP/loxP and their respective control were fed with methionine- and choline-deficient diet supplemented with 60 kcal % fat (HFMCD, A06071301B16, Research Diets) for 4 weeks. Control mice received normal chow (NC, Specialty Feeds).
(§3) 6-8-week old male C57BL/6N mice (InVivos) were injected with 4×10^11 gc AAV8-Alb-sgp130 virus to induce hepatocyte specific expression of soluble gp130; control mice were injected with 4×10^11 gc AAV8-Alb-Null virus. 3 weeks following virus administration, mice were fed with HFMCD, WDF, or NC for durations that are described.

[6] = tested on: WDF-fed mice; experiment: Hepatocyte-specific sgp130 expression in WDF-fed mice; format: in vivo, mouse
Description: as §2
6-8 weeks old C57BL/6N, Il11ra1−/− mice, and Il11ra1loxP/loxP and their respective control were fed western diet (D12079B, Research Diets) supplemented with 15% weight/volume fructose in drinking water (WDF) for 16 weeks. Control mice received NC and tap water.
as §3

## COc1ccc2c(c1)c(CC(=O)O)c(C)n2C(=O)c1ccc(Cl)cc1 [indomethacin, reference compound]
[1]
  expression of IL-11: reduction in the expression of IL-11

B1: sIL-11R: soluble murine IL-11 receptor alpha chain (Curtis et al.) (protein, UniProt Q64385 24-372, looked up)
extracellular domain: SPCPQAWGPPGVQYGQPGRPVMLCCPGVSAGTPVSWFRDGDSRLLQGPDSGLGHRLVLAQVDSPDEGTYVCQTLDGVSGGMVTLKLGFPPARPEVSCQAVDYENFSCTWSPGQVSGLPTRYLTSYRKKTLPGAESQRESPSTGPWPCPQDPLEASRCVVHGAEFWSEYRINVTEVNPLGASTCLLDVRLQSILRPDPPQGLRVESVPGYPRRLHASWTYPASWRRQPHFLLKFRLQYRPAQHPAWSTVEPIGLEEVITDAVAGLPHAVRVSARDFLDAGTWSAWSPEAWGTPSTGPLQDEIPDWSQGHGQQLEAVVAQEDSPAPARPSLQPDPRPLDHRDPLEQVAVLA
modifications: extracellular domain
[2]
  antagonism of IL-11 mediated signalling: capable of antagonizing the activity of IL-11

B2: W147A: IL-11 antagonist mutein, amino acid 147 mutated from tryptophan to alanine (protein, UniProt P20809 22-199, looked up, variant W147A)
Interleukin-11: PGPPPGPPRVSPDPRAELDSTVLLTRSLLADTRQLAAQLRDKFPADGDHNLDSLPTLAMSAGALGALQLPGVLTRLRADLLSYLRHVQWLRRAGGSSLKTLEPELGTLQARLDRLLRRLQLLMSRLALPQPPPDPPAPPLAPPSSAAGGIRAAHAILGGLHLTLDWAVRGLLLLKTRL
[2]
  antagonism of IL-11 mediated signalling: efficient blockade of IL-11 signalling

B3: interferon-gamma: interferon-gamma (IFNγ) (protein, UniProt P01579 24-161, looked up)
Interferon gamma: QDPYVKEAENLKKYFNAGHSDVADNGTLFLGILKNWKEESDRKIMQSQIVSFYFKLFKNFKDDQSIQKSVETIKEDMNVKFFNSNKKKRDDFEKLTNYSVTDLNVQRKAIHELIQVMAELSPAAKTGKRKRSQMLFRG
[1]
  expression of IL-11: reduction in the expression of IL-11

B4: sgp130: Soluble gp130, inhibitor of trans-signaling; human sgp130 Fc in vitro, mouse sgp130 expressed from AAV8-Alb-sgp130 in vivo (protein)
chain: ELLDPCGYISPESPVVQLHSNFTAVCVLKEKCMDYFHVNANYIVWKTNHFTIPKEQYTIINRTASSVTFTDIASLNIQLTCNILTFGQLEQNVYGITIISGLPPEKPKNLSCIVNEGKKMRCEWDGGRETHLETNFTLKSEWATHKFADCKAKRDTPTSCTVDYSTVYFVNIEVWVEAENALGKVTSDHINFDPVYKVKPNPPHNLSVINSEELSSILKLTWTNPSIKSVIILKYNIQYRTKDASTWSQIPPEDTASTRSSFTVQDLKPFTEYVFRIRCMKEDGKGYWSDWSEEASGITYEDRPSKAPSFWYKIDPSHTQGYRTVQLVWKTLPPFEANGKILDYEVTLTRWKSHLQNYTVNATKLTVNLTNDRYLATLTVRNLVGKSDAAVLTIPACDFQATHPVMDLKAFPKDNMLWVEWTTPRESVKKYILEWCVLSDKAPCITDWQQEDGTVHRTYLRGNLAESKCYLITVTPVYADGPGSPESIKAYLKQAPPSKGPTVRTKKVGKNEAVLEWDQLPVDVQNGFIRNYTIFYRTIIGNETAVNVDSSHTEYTLSSLTSDTLYMVRMAAYTDEGGKDGPEFTFTTPKFAQGEIE
modifications: left off: a dimerising Fc or GST
notes: human sgp130 Fc in vitro, mouse sgp130 expressed from AAV8-Alb-sgp130 in vivo
[3]; Western blot
  palmitate-induced signaling events: no effect
[3]; X209 2 μg/ml or sgp130 1 μg/ml
  secretion of cytokines (IL11, IL6, CCL2, CCL5): no effect
[4]; IL11 20 ng/ml, sgp130 or sIL11RA 1 μg/ml
  IL11-induced hepatocyte death and signaling: unaffected
[4]; increasing doses of sgp130 or sIL11RA
  ALT release from IL11-stimulated hepatocytes: no effect
[4]; sgp130 added
  activation of signaling downstream of hyperIL6 (p-STAT3): blocked
  activation of signaling downstream of hyperIL11 (p-ERK/p-JNK): blocked
  hepatotoxic effects of hyperIL11: inhibited
[4]; sgp130 or sIL11RA 1 μg/ml
  IL11 dose-dependent hepatocyte cell death on addition of decoy: unaffected
[5]; HFMCD
  diet-induced signaling events: no effect
[5]; HFMCD 4 weeks
  HFMCD-induced liver fibrosis: unchanged
  expression of inflammation and fibrosis genes: unaffected
  hepatocyte damage markers (ALT and AST) and GSH: irrespective of sgp130 expression
  steatosis: unaltered
[6]; 16 weeks of WDF
  ALT, AST, collagen, fasting blood glucose, serum triglycerides, serum cholesterol, GSH: none of these parameters were affected
  expression of pro-inflammatory and fibrosis genes: unaffected
  obesity, liver mass and steatosis phenotypes: unaffected
[6]; WDF
  diet-induced signaling events: no effect
